Data set [1] deals with T1, PA0932 (PaCysM, cysteine synthase B) (Pseudomonas aeruginosa, UniProt Q9I526).
T1 construct: gene cysM; recombinant, N-terminal His-tag with TEV cleavage site; homodimer
T1 sequence (Q9I526 1-299): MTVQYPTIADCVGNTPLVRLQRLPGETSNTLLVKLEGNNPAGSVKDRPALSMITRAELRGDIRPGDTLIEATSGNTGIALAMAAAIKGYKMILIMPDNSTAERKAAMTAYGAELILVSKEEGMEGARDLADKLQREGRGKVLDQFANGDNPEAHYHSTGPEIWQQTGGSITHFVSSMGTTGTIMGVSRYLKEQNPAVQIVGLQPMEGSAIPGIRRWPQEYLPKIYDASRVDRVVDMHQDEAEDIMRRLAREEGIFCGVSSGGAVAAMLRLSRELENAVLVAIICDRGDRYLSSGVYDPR
In words: UV-vis absorption ([…] nm), near-UV circular dichroism, fluorescence. It counts as binding. In general terms: Circular dichroism is widely used to follow secondary structure.

In data set [2] the target is T2, PA2709 (PaCysK, cysteine synthase A) (Pseudomonas aeruginosa, UniProt Q9I0D3).
T2 construct: gene cysK; recombinant, N-terminal His-tag with TEV cleavage site; homodimer
T2 sequence (Q9I0D3 1-324): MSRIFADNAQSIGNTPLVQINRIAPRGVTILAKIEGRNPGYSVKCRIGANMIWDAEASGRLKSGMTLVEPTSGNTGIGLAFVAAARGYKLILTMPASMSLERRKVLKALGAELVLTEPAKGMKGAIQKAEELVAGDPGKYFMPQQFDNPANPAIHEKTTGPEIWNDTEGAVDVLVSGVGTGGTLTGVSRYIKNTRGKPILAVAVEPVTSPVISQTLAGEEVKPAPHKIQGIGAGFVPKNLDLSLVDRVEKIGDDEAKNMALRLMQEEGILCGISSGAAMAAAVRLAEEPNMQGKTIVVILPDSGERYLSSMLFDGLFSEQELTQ
Described as above. The data set is classed as binding.

The target of data set [3] is T1, PA0932 (PaCysM, cysteine synthase B). The data set is described as follows: ninhydrin steady-state kinetics, global fit (Km […]); substrate inhibition Ki. It counts as biochemical.
Substrate in data set [4]: CC(=O)OC[C@H](N)C(=O)O
In words: UV-vis absorption of PLP intermediates; steady-state kinetics, ninhydrin assay with thiosulfate (Km). It counts as biochemical, Pseudomonas aeruginosa. The following applies: pyridoxal […]'-phosphate (PLP) active site; forms alpha-aminoacrylate intermediate with PLP; pH 7.0; 25.0 °C.

Data set [5] concerns the molecule itself. In words: SEC-MALS; Agilent GPC/SEC, AdvanceBio SEC column (300 Å), dual-angle light-scattering detector, BSA as calibrant; protein loaded at 1 mg/mL in buffer H (100 mM HEPES, pH 7.0), 20 °C, 1 mL/min. A general note: SEC sorts molecules by how far they enter the pores of the column.
Substrate in data set [6]: CC(=O)OC[C@H](N)C(=O)O
In words: UV-vis absorption of PLP intermediates; steady-state kinetics with bisulfide electrode (Km). The following applies: pyridoxal […]'-phosphate (PLP) active site; forms alpha-aminoacrylate intermediate with PLP; pH 7.0; 25.0 °C. The data set is classed as biochemical, Pseudomonas aeruginosa.

The text below walks through data of article PMC12800425, “De novo cysteine biosynthesis in Pseudomonas aeruginosa: Characterization of the two main cysteine synthase isoforms” (iScience, 2025).

As a reminder, the Km is the substrate concentration at which the rate is half of its maximum. For orientation: kcat means the maximal rate divided by the concentration of active sites. In general, kcat/Km refers to the turnover number divided by the Michaelis constant. One may read the stoichiometry N as the number of molecules, sites or subunits per partner or assembly.

Take `Cc1ncc(COP(=O)(O)O)c(C=O)c1O` [PLP, pyridoxal 5′-phosphate]: in data set [1], the “UV-vis absorption (413 nm), near-UV circular dichroism, fluorescence” value is “absorption of the PLP cofactor bound as an internal aldimine to the catalytic lysine”. The “UV-vis absorption (411 nm), near-UV circular dichroism, fluorescence” value in data set [2] is on record as “absorption of the PLP cofactor bound as an internal aldimine to the catalytic lysine”.
For `O=S(O)(O)=S` [thiosulfate], the Ki in data set [3] worked out at 970 ± 830 µM.

B1: PA0932 (PaCysM, cysteine synthase B) (Pseudomonas aeruginosa PAO1) (protein)
chain: MTVQYPTIADCVGNTPLVRLQRLPGETSNTLLVKLEGNNPAGSVKDRPALSMITRAELRGDIRPGDTLIEATSGNTGIALAMAAAIKGYKMILIMPDNSTAERKAAMTAYGAELILVSKEEGMEGARDLADKLQREGRGKVLDQFANGDNPEAHYHSTGPEIWQQTGGSITHFVSSMGTTGTIMGVSRYLKEQNPAVQIVGLQPMEGSAIPGIRRWPQEYLPKIYDASRVDRVVDMHQDEAEDIMRRLAREEGIFCGVSSGGAVAAMLRLSRELENAVLVAIICDRGDRYLSSGVYDPR
notes: recombinant, N-terminal His-tag with TEV cleavage site; homodimer
Regarding B1, in data set [4], the Km came to 2700 ± 600 µM, the kcat worked out at 209 ± 25 s⁻¹ and the kcat/Km was 79000 ± 20000 M⁻¹ s⁻¹.

B2: Cysteine synthase B (PA0932, PaCysM) from Pseudomonas aeruginosa (enzyme, Pseudomonas aeruginosa PAO1, UniProt Q9I526 1-299, looked up)
chain: MTVQYPTIADCVGNTPLVRLQRLPGETSNTLLVKLEGNNPAGSVKDRPALSMITRAELRGDIRPGDTLIEATSGNTGIALAMAAAIKGYKMILIMPDNSTAERKAAMTAYGAELILVSKEEGMEGARDLADKLQREGRGKVLDQFANGDNPEAHYHSTGPEIWQQTGGSITHFVSSMGTTGTIMGVSRYLKEQNPAVQIVGLQPMEGSAIPGIRRWPQEYLPKIYDASRVDRVVDMHQDEAEDIMRRLAREEGIFCGVSSGGAVAAMLRLSRELENAVLVAIICDRGDRYLSSGVYDPR
modifications: PLP cofactor bound as an internal aldimine to the catalytic lysine (Lys45, based on sequence alignments)
notes: Cysteine synthase B (CysM, PA0932) of P. aeruginosa PAO1; gene optimised for E. coli, synthesised and cloned between NdeI and BamHI into pET28a-TEV; calculated mass for a dimer 65 kDa; also called OASS-B; S-sulfocysteine synthase; not shown: His6, N-terminal, cleaved
Regarding B2, the “stoichiometry N” value in data set [5] turned out to be 2.

B3: PA2709 (PaCysK, cysteine synthase A) (Pseudomonas aeruginosa PAO1) (protein)
chain: MSRIFADNAQSIGNTPLVQINRIAPRGVTILAKIEGRNPGYSVKCRIGANMIWDAEASGRLKSGMTLVEPTSGNTGIGLAFVAAARGYKLILTMPASMSLERRKVLKALGAELVLTEPAKGMKGAIQKAEELVAGDPGKYFMPQQFDNPANPAIHEKTTGPEIWNDTEGAVDVLVSGVGTGGTLTGVSRYIKNTRGKPILAVAVEPVTSPVISQTLAGEEVKPAPHKIQGIGAGFVPKNLDLSLVDRVEKIGDDEAKNMALRLMQEEGILCGISSGAAMAAAVRLAEEPNMQGKTIVVILPDSGERYLSSMLFDGLFSEQELTQ
notes: as for B1
As to B3, in data set [6], the Km was 1100 ± 100 µM, the kcat turned out to be 102 ± 3 s⁻¹ and the kcat/Km was found to be 90000 ± 9000 M⁻¹ s⁻¹.

B4: Cysteine synthase A (PA2709, PaCysK) from Pseudomonas aeruginosa (enzyme, Pseudomonas aeruginosa PAO1, UniProt Q9I0D3 1-324, looked up)
chain: MSRIFADNAQSIGNTPLVQINRIAPRGVTILAKIEGRNPGYSVKCRIGANMIWDAEASGRLKSGMTLVEPTSGNTGIGLAFVAAARGYKLILTMPASMSLERRKVLKALGAELVLTEPAKGMKGAIQKAEELVAGDPGKYFMPQQFDNPANPAIHEKTTGPEIWNDTEGAVDVLVSGVGTGGTLTGVSRYIKNTRGKPILAVAVEPVTSPVISQTLAGEEVKPAPHKIQGIGAGFVPKNLDLSLVDRVEKIGDDEAKNMALRLMQEEGILCGISSGAAMAAAVRLAEEPNMQGKTIVVILPDSGERYLSSMLFDGLFSEQELTQ
modifications: PLP cofactor bound as an internal aldimine to the catalytic lysine (Lys44, based on sequence alignments)
notes: Cysteine synthase A (CysK, PA2709) of P. aeruginosa PAO1; gene optimised for E. coli, synthesised and cloned between NdeI and BamHI into pET28a-TEV; calculated mass for a dimer 69 kDa; also called O-acetylserine sulfhydrylase; OASS-A; not shown: His6, N-terminal, cleaved
On to B4, for which the “stoichiometry N” value in data set [5] stood at 2.
